Reference: article doi:10.1101/2024.03.19.585761

Biological target: ErbB2 (natural, endogenous in BT474 and MCF7 cells) (human (endogenous in MCF7 and BT474)) (UniProt P04626)
Experiment: PICO

“ErbB3 (endogenous in BT474 and MCF7 cells) (from UniProt P21860 20-1342) (receptor)” showed an ErbB2:ErbB3 complexes per cell (ppc), BT474 mock, antibody pair TTZ-2F12 of 662 ppc, an ErbB2:ErbB3 complexes per cell (ppc), BT474 mock, antibody pair TTZ-Ab90 of 831 ppc and an ErbB2:ErbB3 complexes per cell (ppc), MCF7 dactolisib, antibody pair TTZ-2F12 of 8670 ppc. It also gave an ErbB2:ErbB3 complexes per cell (ppc), MCF7 mock, antibody pair TTZ-2F12 of 4370 ppc, an ErbB2:ErbB3 complexes per cell (ppc), MCF7 mock, antibody pair TTZ-Ab90 of 5200 ppc and an ErbB2:ErbB3 complexes per cell, BT474 dactolisib (molecules per cell) of under 181. The percent of ErbB2 bound to ErbB3, BT474 mock was 0.09%.
